Consider one protein from publication PMC4066673 (Biochemistry, 2012).

This series concerns the molecule itself. Put plainly: SEC-MALS. In general terms: SEC sorts molecules by how far they enter the pores of the column.

B1: His6-tagged (Δ1-39)hTHEM4 (enzyme, human, UniProt Q5T1C6 40-240, looked up)
chain: EVILKDCSVPNPSWNKDLRLLFDQFMKKCEDGSWKRLPSYKRTPTEWIQDFKTHFLDPKLMKEEQMSQAQLFTRSFDDGLGFEYVMFYNDIEKRMVCLFQGGPYLEGPPGFIHGGAIATMIDATVGMCAMMAGGIVMTANLNINYKRPIPLCSVVMINSQLDKVEGRKFFVSCNVQSVDEKTLYSEATSLFIKLNPAKSLT
Consider B1, for which the “stoichiometry N” value is 2.

Broadly, the stoichiometry N is a count of units in the complex or per binding partner.
